Reference: patent US20060275295A1 (published 2006)

Experiments:
[1] = molecular target: T1, human THAP1 (THanatos-Associated Protein-1), full length (human, UniProt Q9NVV9 1-213); experiment: yeast two-hybrid with THAP1 bait and GST pull-down with GST-THAP1
T1 construct: Used as Gal4-BD (pGBKT7) or Gal4-AD (pGADT7, pGAD424) fusion in yeast two-hybrid and as 35S-labelled in vitro translated protein (template pGBKT7-THAP1); also called hTHAP1; THAP1 wild type
T1 sequence: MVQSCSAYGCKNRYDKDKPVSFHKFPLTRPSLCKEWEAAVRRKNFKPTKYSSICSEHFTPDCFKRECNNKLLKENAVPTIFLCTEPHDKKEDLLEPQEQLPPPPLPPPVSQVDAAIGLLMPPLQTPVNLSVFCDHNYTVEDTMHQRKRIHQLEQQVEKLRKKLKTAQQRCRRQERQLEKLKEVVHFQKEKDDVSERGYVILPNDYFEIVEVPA

[2] = molecular target: T1, human THAP1 (THanatos-Associated …); experiment: yeast two-hybrid, AH109, His/Ade selection
Source text: 285) and CXCL10-2 (5′-[…]-3′) (SEQ ID NO. 286), No. 2403734 (IFNγ) with primers IFN-1 (5′-[…]-3′) (SEQ ID NO: 287) and IFN-2 (5′-[…]-3′) (SEQ ID NO: 288). The PCR products were digested with EcoRI and BamHI, and cloned between EcoRI and BamHI cloning sites of vector pGBKT7 (Clontech).

[3] = molecular target: T2, GFP-THAP1 fusion protein (pEGFP.C2-THAP1) (human, UniProt Q5RCE4 1-213 (Pongo abelii entry)); experiment: in vivo interaction assay: co-transfection in primary human endothelial cells, confocal microscopy
T2 construct: Expressed in transfected primary human endothelial cells (HUVEC); not shown: Enhanced Green Fluorescent Protein (EGFP) of pEGFP.C2 (Clontech), N-terminal
T2 sequence: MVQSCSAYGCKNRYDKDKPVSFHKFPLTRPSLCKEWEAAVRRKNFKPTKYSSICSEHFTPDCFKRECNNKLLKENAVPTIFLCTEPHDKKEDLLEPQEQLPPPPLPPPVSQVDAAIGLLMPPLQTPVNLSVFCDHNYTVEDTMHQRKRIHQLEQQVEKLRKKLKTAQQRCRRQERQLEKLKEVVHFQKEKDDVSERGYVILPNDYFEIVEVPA
Source text: To provide further evidence for a physiological interaction between THAP1 and Par4 in vivo interactions between THAP1 and PAR4 were investigated. For that purpose, confocal immunofluorescence microscopy was used to analyze the subcellular localization of epitope-tagged Par4DD in primary human endothelial cells transiently cotransfected with pEF-mycPar4DD eukaryotic expression vector and GFP or GFP-THAP1 expression vectors (pEGFP.C2 and pEGFP.C2-THAP1, respectively). To generate pEF-mycPar4DD, mycPar4DD (amino acids 250-342) was amplified by PCR using pGBKT7-Par4DD as template, with primers myc.BD7 (5′-[…]-3′) (SEQ ID NO: 195) and Par4.9 (5′-[…]-3′) (SEQ ID NO: 196), and cloned into the XbaI and NotI sites of the pEF-BOS expression vector (Mizushima and Nagata, Nucleic Acids Research, 18:5322, 1990). Primary human endothelial cells from umbilical vein (HUVEC, PromoCell, Heidelberg, Germany) were grown in complete ECGM medium (PromoCell, Heidelberg, Germany), plated on coverslips and transiently transfected in RPMI medium using GeneJammer transfection reagent according to manufacturer instructions (Stratagene, La Jolla, Calif., USA). […] Cells were then washed three times 5 min at room temperature in PBS-BSA, and incubated for 1 hr with Cy3 (red fluorescence)-conjugated goat anti-mouse (1/1000, Amersham Pharmacia Biotech) secondary antibodies, diluted in PBS-BSA. […]

B1: SLC/CCL21ΔCOOH (SLC/CCL21 deletion mutant lacking the basic carboxy-terminal extension, amino acids 102-134) (ligand)
chain: SDGGAQDCCLKYSQRKIPAKVVRSYRKQEPSLGCSIPAILFLPRKRSQAELCADPKELWVQQLMQHLDKTPSPQKPAQG
notes: The BamHI-PstI fragment is said to encode SLC amino acids 24-102
binding result [1]: binds

B2: human chemokine CXCL9, mature form (amino acids 23-125) (ligand)
chain: TPVVRKGRCSCISTNQGTIHLQSLKDLKQFAPSPSCEKIEIIATLKNGVQTCLNPDSADVKELIKKWEKQVSQKKKQKNGKKHQKKKVLKVRKSQRSRQKKTT
notes: Gal4 fusion in yeast or in vitro translated (pGBKT7 or pGADT7 template); tags not built in; also called MIG/CXCL9; MIG
binding result [2]: binds

B3: myc-Par4DD (epitope-tagged Par4DD, amino acids 250-342, pEF-mycPar4DD) (other, not shown: small tags and cut ends)
chain: GFPRYNRDANVSGTLVSSSTLEKKIEDLEKEVVTERQENLRLVRLMQDKEEMIGKLKEEIDLLNRDLDDIEDENEQLKQENKTLLKVVGQLTR
notes: Expressed in transfected primary human endothelial cells (HUVEC)
binding result [3]: binds
